From US20130017188A1, “MODULATION OF SGK1 EXPRESSION IN TH17 CELLS TO MODULATE TH17-MEDIATED IMMUNE RESPONSES” (THE BRIGHAM AND WOMEN'S HOSPITAL, INC., priority 2009, published 2013)

Experiments:
[1] = test system: SGK1 expression in naïve CD4+ T cells; assay: SGK1 mRNA expression during T cell / TH17 differentiation; type: cell-based
Protocol: Naïve CD4+ T cells were cultured in TH17 differentiating condition (TGF-β plus IL-6) for 96 hours.
The correlation between the SGK1 expression level during T cell differentiation was previously unknown, so SGK1 mRNA level was first measured under different conditions during T cell differentiation (FIG. 1). […] IL-23, an IL-12 family cytokine, is essential for enhancing generation of TH17 cells.
The time dependent expression of SGK1 during TH17 differentiation was further examined by culturing naïve CD4+ T cells under TH17 differentiating conditions (TGF-β plus IL-6) for 96 hours. After 48 hours, TH17 cells were supplemented with IL-23 until the end of the culture period.

[2] = test system: CD4+CD62L- cells (memory CD4 cells); assay: IL-17A and IL-17F expression in sorted memory CD4+CD62L- cells; type: cell-based, mice; settings: anti-CD3 plus IL-23 vs anti-CD3 alone (FIG. 5)
Protocol: Wild-type and SGK1-deficient CD4+CD62L-cells (memory CD4 cells) were sorted and cultured with either anti-CD3 alone or anti-CD3 plus IL-23.
(§1) It has been shown that exposure of IL-23 is essential for expanding and stabilizing TH17 cells. […] It was next tested whether SGK1 is essential for IL-23-dependent expansion of TH17 cells. Naïve CD4+ T cells were sorted from wild-type and SGK1-deficient mice and were cultured under TH17 differentiation conditions, as described herein. After a first round of stimulation, cells were rested for two days in a cytokine-free medium. Two days later, cells were activated in the presence or absence of IL-23, and intracellular cytokine staining was performed for IL-17 expression. […] It was further tested whether IL-23 can expand sorted memory TH17 cells. Both wild-type and SGK1-deficient CD4^+CD62L^− cells were sorted and cultured with either anti-CD3 alone or anti-CD3 plus IL-23.

TH17 cells = assay: IL-23 dependent expansion of differentiated TH17 cells, intracellular cytokine staining for IL-17; type: cell-based, mice
Protocol: Naïve CD4+ T cells were sorted from wild-type and SGK1-deficient mice and cultured under TH17 differentiation conditions. After a first round of stimulation, the cells were rested for two days in cytokine free medium. Two days later, cells were activated in the presence or absence of IL-23, and intracellular cytokine staining was performed for IL-17.
as §1

For “IL-6: STAT3-activating cytokine used with TGF-β for TH17 differentiation”, the “expression of SGK1 (mRNA)” value ([1]; IL-6 added together with TGF-β (FIG. 1)) was “further increased the expression SGK1”.

In the case of TGF-β, the “expression level of SGK1 (mRNA)” value ([1]; T cell differentiation, TGF-β (FIG. 1)) is reported as “upregulate the expression level of SGK1”.

B1: IL-23: an IL-12 family cytokine, essential for enhancing generation of TH17 cells (protein, UniProt Q9NPF7 20-189; P29460 23-328, looked up)
Interleukin-23 subunit alpha: RAVPGGSSPAWTQCQQLSQKLCTLAWSAHPLVGHMDLREEGDEETTNDVPHIQCGDGCDPQGLRDNSQFCLQRIHQGLIFYEKLLGSDIFTGEPSLLPDSPVGQLHASLLGLSQLLQPEGHHWETQQIPSLSPSQPWQRLLLRFKILRSLQAFVAVAARVFAHGAATLSP
Interleukin-12 subunit beta: IWELKKDVYVVELDWYPDAPGEMVVLTCDTPEEDGITWTLDQSSEVLGSGKTLTIQVKEFGDAGQYTCHKGGEVLSHSLLLLHKKEDGIWSTDILKDQKEPKNKTFLRCEAKNYSGRFTCWWLTTISTDLTFSVKSSRGSSDPQGVTCGAATLSAERVRGDNKEYEYSVECQEDSACPAAEESLPIEVMVDAVHKLKYENYTSSFFIRDIIKPDPPKNLQLKPLKNSRQVEVSWEYPDTWSTPHSYFSLTFCVQVQGKSKREKKDRVFTDKTSATVICRKNASISVRAQDRYYSSSWSEWASVPCS
For B1, the “expression of IL-17A and IL-17F” value ([2]; SGK1-deficient memory cells) was “defective in inducing expression of IL-17A and IL-17F”, the “expression of IL-17A and IL-17F” value ([2]; wild-type memory cells) was “clearly enhanced the expression of IL-17A and IL-17F” and the “expression of SGK1 (mRNA)” value ([1]; IL-23, further to TGF-β and IL-6 (FIG. 1)) was “further enhances the expression of SGK1”. For the same molecule, the “time dependent expression of SGK1” value ([1]; TH17 cells supplemented with IL-23 after 48 hours (FIG. 2)) was “further induced SGK1 expression”, the “IL-17 expressing TH17 cells after re-activation with IL-23” value (TH17 cells; SGK1-deficient TH17 cells, ~4% in absence of IL-23) was about 1% and the “IL-17 expressing TH17 cells after re-activation with IL-23” value (TH17 cells; wild-type TH17 cells, 11.5% in absence of IL-23) was 13%.
